Measured values as given in US20020177126A1 (published 2002).
Where “and” joins values, the source holds several entries; their conditions need not be identical. Equal values may be shown once.

What was measured:
[1] = biological target: F protein (RSV F glycoprotein immobilised on the BIAcore sensor chip) (respiratory syncytial virus (RSV), UniProt P03420 26-524); test: BIAcore, immobilised F protein
[2] = biological target: Bac-F (UniProt P03420 26-524); test: BIAcore, Mab vs Bac-F, 1:1
[3] = biological target: T1, F protein of wild type RSV A/Long (respiratory syncytial virus, strain …, UniProt P12568 26-574); test: cell-based or functional assay
T1 sequence (P12568 26-574): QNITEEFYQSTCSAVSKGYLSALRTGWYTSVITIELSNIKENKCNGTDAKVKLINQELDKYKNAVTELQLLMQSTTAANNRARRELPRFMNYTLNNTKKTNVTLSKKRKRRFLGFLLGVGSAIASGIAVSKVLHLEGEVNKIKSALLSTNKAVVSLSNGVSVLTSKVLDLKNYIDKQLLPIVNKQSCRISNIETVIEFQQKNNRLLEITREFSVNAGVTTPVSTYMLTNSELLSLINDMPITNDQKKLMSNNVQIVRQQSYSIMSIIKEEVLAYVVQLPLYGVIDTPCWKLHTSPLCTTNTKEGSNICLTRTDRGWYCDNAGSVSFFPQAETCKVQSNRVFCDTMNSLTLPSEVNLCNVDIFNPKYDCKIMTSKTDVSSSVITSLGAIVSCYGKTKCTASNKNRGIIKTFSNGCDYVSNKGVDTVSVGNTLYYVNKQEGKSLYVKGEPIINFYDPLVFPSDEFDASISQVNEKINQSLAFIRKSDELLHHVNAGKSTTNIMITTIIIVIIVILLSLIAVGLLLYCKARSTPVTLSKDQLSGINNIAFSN

[4] = biological target: T1, F protein of wild type RSV A/Long; test: cell-based or functional assay; remark: listed apart in the source

Chain of Bac-F (P03420 26-524): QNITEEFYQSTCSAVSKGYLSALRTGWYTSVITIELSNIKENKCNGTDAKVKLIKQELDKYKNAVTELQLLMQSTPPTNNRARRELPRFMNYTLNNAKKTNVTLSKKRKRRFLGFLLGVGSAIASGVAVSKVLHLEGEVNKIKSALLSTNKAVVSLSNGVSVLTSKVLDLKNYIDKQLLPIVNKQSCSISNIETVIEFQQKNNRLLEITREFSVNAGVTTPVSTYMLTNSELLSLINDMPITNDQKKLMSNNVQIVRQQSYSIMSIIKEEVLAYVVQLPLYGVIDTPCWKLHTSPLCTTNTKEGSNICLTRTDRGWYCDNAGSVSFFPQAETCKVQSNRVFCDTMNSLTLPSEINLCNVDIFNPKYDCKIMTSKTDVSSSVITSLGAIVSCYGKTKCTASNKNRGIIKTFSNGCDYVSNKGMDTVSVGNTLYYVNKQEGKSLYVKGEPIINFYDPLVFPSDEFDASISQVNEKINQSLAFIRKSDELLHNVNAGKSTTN
Chain of F protein (RSV F glycoprotein immobilised on the BIAcore sensor chip) (P03420 26-524): as above

Row | Binder | koff [1] | kon [1] | Kd [2] | koff [2] | kon [2] | number in parentheses after KD (fold vs SYNAGIS) [2] | EC50, RSV (Long) microneutralization [3] | Fold Difference (Control IC50) [4] | Fold Difference (Curve IC50) [4] | Mean IC50 (Control), RSV microneutralization [4] | Mean IC50 (Curve), RSV microneutralization [4]
1 | 1X-493L1FR (Fab) (Fab, V domains shown) VH: QVTLRESGPALVKPTQTLTLTCTFSGFSLSTSGMSVGWIRQPPGKALEWLADIWWDDKKDYNPSLKSRLTISKDTSKNQVVLKVTNMDPADTATYYCARSMITNWYFDVWGAGTTVTVSS VL: DIQMTQSPSTLSASVGDRVTITCSASSSVGYMHWYQQKPGKAPKLLIYDTSKLASGVPSRFSGSGSGTEFTLTISSLQPDDFATYYCFQGSGYPFTFGGGTKLEIK | 0.00065 s⁻¹ | 185000 M⁻¹ s⁻¹ | – | – | – | – | – | – | – | – | –
2 | A1e9 (monoclonal antibody) (antibody, V domains shown) VH: QVTLRESGPALVKPTQTLTLTCTFSGFSLSTAGMSVGWIRQPPGKALEWLADIWWDGKKHYNPSLKDRLTISKDTSKNQVVLKVTNMDPADTATYYCARDMIFNWYFDVWGQGTTVTVSS VL: DIQMTQSPSTLSASVGDRVTITCSLSSRVGYMHWYQQKPGKAPKLLIYDTFKLSSGVPSRFSGSGSGTEFTLTISSLQPDDFATYYCFQGSGYPFTFGGGTKVEIK | – | – | 0.33 nM | 0.000143 s⁻¹ | 433000 M⁻¹ s⁻¹ | 12 fold | – | – | – | – | –
3 | P12f2 (Fab) (Fab, V domains shown, also called Pf12; P1212) VH: QVTLRESGPALVKPTQTLTLTCTFSGFSLSTPGMSVGWIRQPPGKALEWLADIWWDDKKHYNPSLKDRLTISKDTSKNQVVLKVTNMDPADTATYYCARDMIFNFYFDVWGAGTTVTVSS VL: DIQMTQSPSTLSASVGDRVTITCSLSSRVGYMHWYQQKPGKAPKLLIYDTFYLSSGVPSRFSGSGSGTEFTLTISSLQPDDFATYYCFQGSGYPFTFGGGTKVEIK | 0.000282 s⁻¹ | 663000 M⁻¹ s⁻¹ | – | – | – | – | 0.65 nM | 16 fold | 11 fold | 0.0326 µg/mL | 0.0407 µg/mL
4 | A13a11 (Fab) (Fab, V domains shown) VH: QVTLRESGPALVKPTQTLTLTCTFSGFSLSTAGMSVGWIRQPPGKALEWLADIWWDDKKHYNPSLKDRLTISKDTSKNQVVLKVTNMDPADTATYYCARDMIFNWYFDVWGAGTTVTVSS VL: DIQMTQSPSTLSASVGDRVTITCSPSSRVGYMHWYQQKPGKAPKLLIYDTYRHSSGVPSRFSGSGSGTEFTLTISSLQPDDFATYYCFQGSGYPFTFGGGTKLEIK | 0.00025 s⁻¹ | 735000 M⁻¹ s⁻¹ | – | – | – | – | – | – | – | – | –
5 | DG (Fab) (Fab, V domains shown) VH: QVTLRESGPALVKPTQTLTLTCTFSGFSLSTAGMSVGWIRQPPGKALEWLADIWWDDKKDYNPSLKSRLTISKDTSKNQVVLKVTNMDPADTATYYCARDMITNFYFDVWGAGTTVTVSS VL: DIQMTQSPSTLSASVGDRVTITCSASSSVGYMHWYQQKPGKAPKLLIYDTFKLASGVPSRFSGSGSGTEFTLTISSLQPDDFATYYCFQGSGYPFTFGGGTKLEIK | 0.000167 s⁻¹ and 0.000444 s⁻¹ | – | – | – | – | – | – | – | – | – | –
6 | A8c7 (monoclonal antibody) (antibody, V domains shown) VH: QVTLRESGPALVKPTQTLTLTCTFSGFSLSTAGMSVGWIRQPPGKALEWLADIWWDDKKSYNPSLKDRLTISKDTSKNQVVLKVTNMDPADTATYYCARDMIFNWYFDVWGQGTTVTVSS VL: DIQMTQSPSTLSASVGDRVTITCSPSSRVGYMHWYQQKPGKAPKLLIYDTRYQSSGVPSRFSGSGSGTEFTLTISSLQPDDFATYYCFQGSGYPFTFGGGTKLEIK | – | – | 0.21 nM | 8.75e-05 s⁻¹ | 417000 M⁻¹ s⁻¹ | 19 fold | – | – | – | – | –
7 | A13c4 (monoclonal antibody) (antibody, V domains shown) VH: QVTLRESGPALVKPTQTLTLTCTFSGFSLSTAGMSVGWIRQPPGKALEWLADIWWDGKKSYNPSLKDRLTISKDTSKNQVVLKVTNMDPADTATYYCARDMIFNFYFDVWGQGTTVTVSS VL: DIQMTQSPSTLSASVGDRVTITCSLSSRVGYMHWYQQKPGKAPKLLIYDTMYQSSGVPSRFSGSGSGTEFTLTISSLQPDDFATYYCFQGSGYPFTFGGGTKVEIK | – | – | 0.13 nM | 3.96e-05 s⁻¹ | 300000 M⁻¹ s⁻¹ | 30 fold | – | 14 fold | 12 fold | 0.0375 µg/mL | 0.0376 µg/mL
8 | A12a6 (monoclonal antibody) (antibody, V domains shown) VH: QVTLRESGPALVKPTQTLTLTCTFSGFSLSTAGMSVGWIRQPPGKALEWLADIWWDGKKDYNPSLKDRLTISKDTSKNQVVLKVTNMDPADTATYYCARDMIFNFYFDVWGQGTTVTVSS VL: DIQMTQSPSTLSASVGDRVTITCSASSRVGYMHWYQQKPGKAPKLLIYDTFKLSSGVPSRFSGSGSGTEFTLTISSLQPDDFATYYCFQGSGYPFTFGGGTKVEIK | – | – | 0.04 nM | 1.65e-05 s⁻¹ | 460000 M⁻¹ s⁻¹ | 98 fold | – | 15 fold | 13 fold | 0.0354 µg/mL | 0.0357 µg/mL
9 | AFFF (monoclonal antibody) (antibody, V domains shown) VH: QVTLRESGPALVKPTQTLTLTCTFSGFSLSTAGMSVGWIRQPPGKALEWLADIWWDDKKDYNPSLKSRLTISKDTSKNQVVLKVTNMDPADTATYYCARSMITNFYFDVWGAGTTVTVSS VL: DIQMTQSPSTLSASVGDRVTITCSASSSVGYMHWYQQKPGKAPKLLIYDTFKLASGVPSRFSGSGSGTEFTLTISSLQPDDFATYYCFQFSGYPFTFGGGTKLEIK | 0.000274 s⁻¹ and 0.000266 s⁻¹ and 0.000206 s⁻¹ | 108000 M⁻¹ s⁻¹ and 96000 M⁻¹ s⁻¹ and 124000 M⁻¹ s⁻¹ | – | – | – | – | – | – | – | – | –
10 | 6H8 (Fab) (Fab, V domains shown) VH: QVTLRESGPALVKPTQTLTLTCTFSGFSLSTAGMSVGWIRQPPGKALEWLADIWWDDKKDYNPSLKSRLTISKDTSKNQVVLKVTNMDPADTATYYCARDMITNFYFDVWGAGTTVTVSS VL: DIQMTQSPSTLSASVGDRVTITCSASSSVGYMHWYQQKPGKAPKLLIYDTFKLTSGVPSRFSGSGSGTEFTLTISSLQPDDFATYYCFQGSGYPFTFGGGTKLEIK | 0.000178 s⁻¹ and 0.000473 s⁻¹ | 314000 M⁻¹ s⁻¹ and 444000 M⁻¹ s⁻¹ | – | – | – | – | – | – | – | – | –
11 | L1-7E5 (Fab) (Fab, V domains shown) VH: QVTLRESGPALVKPTQTLTLTCTFSGFSLSTAGMSVGWIRQPPGKALEWLADIWWDDKKDYNPSLKSRLTISKDTSKNQVVLKVTNMDPADTATYYCARDMITNFYFDVWGAGTTVTVSS VL: DIQMTQSPSTLSASVGDRVTITCSASSRVGYMHWYQQKPGKAPKLLIYDTFKLASGVPSRFSGSGSGTEFTLTISSLQPDDFATYYCFQGSGYPFTFGGGTKLEIK | 0.000192 s⁻¹ and 0.000331 s⁻¹ and 0.000229 s⁻¹ | – | – | – | – | – | – | – | – | – | –
12 | M3H9 (Fab) (Fab, V domains shown) VH: QVTLRESGPALVKPTQTLTLTCTFSGFSLSTAGMSVGWIRQPPGKALEWLADIWWDDKKDYNPSLKSRLTISKDTSKNQVVLKVTNMDPADTATYYCARDMIFNWYFDVWGAGTTVTVSS VL: DIQMTQSPSTLSASVGDRVTITCSASSSVGYMHWYQQKPGKAPKLLIYDTYKQTSGVPSRFSGSGSGTEFTLTISSLQPDDFATYYCFQGSGYPFTFGGGTKLEIK | 0.000338 s⁻¹ | 605000 M⁻¹ s⁻¹ | – | – | – | – | – | – | – | – | –
13 | P11d4 (monoclonal antibody) (antibody, V domains shown) VH: QVTLRESGPALVKPTQTLTLTCTFSGFSLSTPGMSVGWIRQPPGKALEWLADIWWDGKKHYNPSLKDRLTISKDTSKNQVVLKVTNMDPADTATYYCARDMIFNWYFDVWGQGTTVTVSS VL: DIQMTQSPSTLSASVGDRVTITCSPSSRVGYMHWYQQKPGKAPKLLIYDTMRLASGVPSRFSGSGSGTEFTLTISSLQPDDFATYYCFQGSGYPFTFGGGTKVEIK | – | – | 0.62 nM | 0.000289 s⁻¹ | 466000 M⁻¹ s⁻¹ | 6 fold | – | 19 fold | 21 fold | 0.0289 µg/mL | 0.0217 µg/mL
14 | Y10H6 (Fab) (Fab, V domains shown) VH: QVTLRESGPALVKPTQTLTLTCTFSGFSLSTAGMSVGWIRQPPGKALEWLADIWWDDKKDYNPSLKSRLTISKDTSKNQVVLKVTNMDPADTATYYCARDMIFNWYFDVWGAGTTVTVSS VL: DIQMTQSPSTLSASVGDRVTITCSASSSVGYMHWYQQKPGKAPKLLIYDTRYLSSGVPSRFSGSGSGTEFTLTISSLQPDDFATYYCFQGSGYPFTFGGGTKLEIK | 0.000462 s⁻¹ | 757000 M⁻¹ s⁻¹ | – | – | – | – | – | – | – | – | –
15 | H3-3F4 (Fab) (Fab, V domains shown, also called 113-3F4) VH: QVTLRESGPALVKPTQTLTLTCTFSGFSLSTAGMSVGWIRQPPGKALEWLADIWWDDKKDYNPSLKSRLTISKDTSKNQVVLKVTNMDPADTATYYCARDMIFNWYFDVWGAGTTVTVSS VL: DIQMTQSPSTLSASVGDRVTITCSASSSVGYMHWYQQKPGKAPKLLIYDTFKLASGVPSRFSGSGSGTEFTLTISSLQPDDFATYYCFQGSGYPFTFGGGTKLEIK | 0.000445 s⁻¹ and 0.000402 s⁻¹ | – | – | – | – | – | – | – | – | – | –
16 | P12f2 (monoclonal antibody) (antibody, V domains shown, also called Pf12; P1212) VH: QVTLRESGPALVKPTQTLTLTCTFSGFSLSTPGMSVGWIRQPPGKALEWLADIWWDDKKHYNPSLKDRLTISKDTSKNQVVLKVTNMDPADTATYYCARDMIFNFYFDVWGAGTTVTVSS VL: DIQMTQSPSTLSASVGDRVTITCSLSSRVGYMHWYQQKPGKAPKLLIYDTFYLSSGVPSRFSGSGSGTEFTLTISSLQPDDFATYYCFQGSGYPFTFGGGTKVEIK | – | – | 0.31 nM | 0.000128 s⁻¹ | 407000 M⁻¹ s⁻¹ | 13 fold | – | 24 fold | 20 fold | 0.0223 µg/mL | 0.0231 µg/mL
17 | P12f4 (monoclonal antibody) (antibody, V domains shown) VH: QVTLRESGPALVKPTQTLTLTCTFSGFSLSTPGMSVGWIRQPPGKALEWLADIWWDGKKHYNPSLKDRLTISKDTSKNQVVLKVTNMDPADTATYYCARDMIFNFYFDVWGQGTTVTVSS VL: DIQMTQSPSTLSASVGDRVTITCSLSSRVGYMHWYQQKPGKAPKLLIYDTRGLPSGVPSRFSGSGSGTEFTLTISSLQPDDFATYYCFQGSGYPFTFGGGTKVEIK | – | – | 0.11 nM | 5.55e-05 s⁻¹ | 495000 M⁻¹ s⁻¹ | 35 fold | – | 23 fold | 19 fold | 0.0235 µg/mL | 0.0242 µg/mL
